Measurements taken from patent US20240238446.

Assays:
[1] = molecular target: human C3b, P01024
[2] = molecular target: mouse C3b/iC3b deposited from mouse serum on LPS, P01027
Chain of mouse C3b/iC3b deposited from mouse serum on LPS, P01027 (P01027 25-1663): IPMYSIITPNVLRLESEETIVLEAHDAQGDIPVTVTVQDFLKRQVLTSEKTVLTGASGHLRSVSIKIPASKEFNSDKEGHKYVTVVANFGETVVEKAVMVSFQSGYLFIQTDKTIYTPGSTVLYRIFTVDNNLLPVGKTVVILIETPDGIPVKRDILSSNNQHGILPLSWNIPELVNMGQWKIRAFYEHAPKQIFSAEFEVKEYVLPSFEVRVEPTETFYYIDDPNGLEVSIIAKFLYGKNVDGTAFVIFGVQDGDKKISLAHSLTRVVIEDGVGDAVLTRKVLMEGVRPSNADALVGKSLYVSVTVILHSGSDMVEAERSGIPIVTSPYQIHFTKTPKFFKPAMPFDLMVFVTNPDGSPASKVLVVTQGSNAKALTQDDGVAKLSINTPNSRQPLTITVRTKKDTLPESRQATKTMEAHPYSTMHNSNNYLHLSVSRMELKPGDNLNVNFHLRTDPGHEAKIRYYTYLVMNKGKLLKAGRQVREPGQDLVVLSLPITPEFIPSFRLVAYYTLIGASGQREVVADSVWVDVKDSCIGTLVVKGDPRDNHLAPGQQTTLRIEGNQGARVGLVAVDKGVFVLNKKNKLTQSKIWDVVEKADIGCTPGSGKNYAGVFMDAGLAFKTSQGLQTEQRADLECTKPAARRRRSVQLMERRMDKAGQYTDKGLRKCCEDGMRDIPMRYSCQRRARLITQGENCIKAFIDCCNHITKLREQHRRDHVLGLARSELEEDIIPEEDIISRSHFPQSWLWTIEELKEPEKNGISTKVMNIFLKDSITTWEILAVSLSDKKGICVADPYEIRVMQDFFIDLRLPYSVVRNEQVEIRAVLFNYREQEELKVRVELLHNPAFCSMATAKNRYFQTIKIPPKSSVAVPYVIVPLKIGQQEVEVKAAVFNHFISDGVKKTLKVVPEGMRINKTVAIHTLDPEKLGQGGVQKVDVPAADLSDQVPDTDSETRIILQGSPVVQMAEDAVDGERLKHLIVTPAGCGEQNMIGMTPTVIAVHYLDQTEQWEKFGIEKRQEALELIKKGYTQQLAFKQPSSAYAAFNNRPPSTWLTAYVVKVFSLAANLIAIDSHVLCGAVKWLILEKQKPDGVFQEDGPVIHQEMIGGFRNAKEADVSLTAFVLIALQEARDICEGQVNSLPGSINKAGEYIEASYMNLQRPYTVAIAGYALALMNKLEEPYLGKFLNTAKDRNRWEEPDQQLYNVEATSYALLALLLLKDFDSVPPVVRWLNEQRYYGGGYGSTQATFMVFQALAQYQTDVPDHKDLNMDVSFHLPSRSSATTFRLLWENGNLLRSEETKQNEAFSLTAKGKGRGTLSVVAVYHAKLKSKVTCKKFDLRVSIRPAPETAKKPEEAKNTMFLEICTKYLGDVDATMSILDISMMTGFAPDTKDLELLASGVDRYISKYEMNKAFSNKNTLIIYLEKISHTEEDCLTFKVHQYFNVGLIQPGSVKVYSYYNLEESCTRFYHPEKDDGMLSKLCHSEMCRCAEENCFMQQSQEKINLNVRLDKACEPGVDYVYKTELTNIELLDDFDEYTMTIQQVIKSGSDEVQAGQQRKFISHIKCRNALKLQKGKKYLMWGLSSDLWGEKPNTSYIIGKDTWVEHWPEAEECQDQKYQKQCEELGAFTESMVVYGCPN

Chain of human C3b, P01024 (P01024 whole entry, looked up): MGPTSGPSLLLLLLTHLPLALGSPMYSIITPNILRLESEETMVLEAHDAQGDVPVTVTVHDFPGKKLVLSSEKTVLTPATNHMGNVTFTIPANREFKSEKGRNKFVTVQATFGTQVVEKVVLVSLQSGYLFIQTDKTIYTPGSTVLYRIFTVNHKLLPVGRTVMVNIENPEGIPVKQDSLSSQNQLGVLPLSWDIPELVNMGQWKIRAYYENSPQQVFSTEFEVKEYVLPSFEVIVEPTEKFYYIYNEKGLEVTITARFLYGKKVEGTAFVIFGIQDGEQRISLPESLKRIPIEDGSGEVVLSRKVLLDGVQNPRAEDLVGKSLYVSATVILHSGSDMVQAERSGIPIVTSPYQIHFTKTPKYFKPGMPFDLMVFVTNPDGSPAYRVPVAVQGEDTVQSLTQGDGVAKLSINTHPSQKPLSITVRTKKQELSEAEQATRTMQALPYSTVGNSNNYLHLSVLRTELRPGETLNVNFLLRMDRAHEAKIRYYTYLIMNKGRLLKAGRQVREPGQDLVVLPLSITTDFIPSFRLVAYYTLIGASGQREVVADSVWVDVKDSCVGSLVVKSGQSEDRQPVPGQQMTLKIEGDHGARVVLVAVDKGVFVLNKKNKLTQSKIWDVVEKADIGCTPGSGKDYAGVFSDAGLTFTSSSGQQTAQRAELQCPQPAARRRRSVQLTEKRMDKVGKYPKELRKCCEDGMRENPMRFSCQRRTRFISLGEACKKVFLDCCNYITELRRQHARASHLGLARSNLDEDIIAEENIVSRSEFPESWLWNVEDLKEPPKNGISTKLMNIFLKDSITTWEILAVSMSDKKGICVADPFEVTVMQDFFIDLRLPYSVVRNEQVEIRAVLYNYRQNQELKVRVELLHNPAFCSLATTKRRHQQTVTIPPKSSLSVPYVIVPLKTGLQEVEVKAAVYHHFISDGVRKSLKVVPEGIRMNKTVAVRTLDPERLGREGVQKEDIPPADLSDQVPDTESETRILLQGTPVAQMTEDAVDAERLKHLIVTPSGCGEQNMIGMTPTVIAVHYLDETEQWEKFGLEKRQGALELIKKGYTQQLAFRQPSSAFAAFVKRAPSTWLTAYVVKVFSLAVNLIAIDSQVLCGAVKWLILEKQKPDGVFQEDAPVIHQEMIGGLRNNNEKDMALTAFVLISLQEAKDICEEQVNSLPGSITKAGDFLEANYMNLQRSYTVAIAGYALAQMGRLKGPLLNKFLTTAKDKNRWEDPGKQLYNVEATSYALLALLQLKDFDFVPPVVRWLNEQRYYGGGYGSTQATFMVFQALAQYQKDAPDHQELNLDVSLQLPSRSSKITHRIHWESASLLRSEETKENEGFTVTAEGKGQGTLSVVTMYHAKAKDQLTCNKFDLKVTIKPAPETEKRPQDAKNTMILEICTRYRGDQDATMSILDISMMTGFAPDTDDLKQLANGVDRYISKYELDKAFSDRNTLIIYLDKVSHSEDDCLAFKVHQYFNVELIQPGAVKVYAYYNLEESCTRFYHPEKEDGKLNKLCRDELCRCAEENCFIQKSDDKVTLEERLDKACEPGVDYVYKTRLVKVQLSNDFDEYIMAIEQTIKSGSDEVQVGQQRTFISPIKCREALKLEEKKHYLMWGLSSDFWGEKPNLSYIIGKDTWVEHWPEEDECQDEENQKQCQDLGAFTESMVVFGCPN

B1: mouse Factor I in mouse serum (protein)
chain: RSPSASDLPQEELVDQKCLLQKYTHRSCNKVFCQPWQRCIEGTCICKLPYQCPRAGTPVCAMNGRSYPTYCHQKSFECLHPEIKFSHNGTCAAEGKFNVSLIYGRTKTEGLVQVKLVDQDERMFICKNSWSMAEANVACVDLGFPLGVRDIQGSFNISGNLHINDTECLHVHCRGVETSLAECAFTKRRTELSNGLAGVVCYKQDADFPTSLSFQCVNGKHIPQEKACNGVNDCGDQSDELCCKGCRGNASLCKSGVCIPDQYKCNGEVDCITGEDESRCEEDRQQNIPKGLARSAQGEAEIETEETEMLTPGMDNERKRIKSLLPKLSCGVKRNTHTRRKRVIGGKPANVGDYPWQVAIKDGQRITCGGIYIGGCWILTAAHCVRPSRAHSYQVWTALLDWLKPNSQLGIQTVKRVIVHEKYNGATFQNDIALIEMKMHTGKKECELPNSVPACVPWSPYLFQPNDRCIISGWGRGKDNQKVYSLRWGEVDLIGNCSQFYPDRYYEKEMQCAGTRDGSIDACKGDSGGPLVCEDINNVTYVWGIVSWGENCGKPEFPGVYTRVANYFDWISYHVGRSLVSQHNV
in vitro C3b and iC3b cleavage assay (western blot with clone 9, generation of C3dg; human Factor H as cofactor, 30 minutes) [1]: more efficiently cleaved to C3dg within the incubation period in the AAV_FI medium and AAV_FI high group
C3b/iC3b deposition on LPS-coated plate, reduction, serum of AAV high FI group [2]: by 50% in the AAV % high FI group
C3b/iC3b deposition on LPS-coated plate, reduction, serum of AAV_low FI group [2]: reduced by 11% in the AAV_low FI
C3b/iC3b deposition on LPS-coated plate, reduction, serum of AAV_medium FI group [2]: by 38% in the AAV_medium FI
